Assay results from PMC12102759 (2025).

B1: PEX5 peptide 240-255 (Peroxisomal targeting signal 1 receptor), 16-mer library wild type / PEX14 Pex14 (PEX14 PEX14, residues 16-84) (parent complex)
chain 1: AEQWAAEFIQQQGTSD
chain 2: TPGSENVLPREPLIATAVKFLQNSRVRQSPLATRRAFLKKKGLTDEEIDMAFQQSGTAADEPSSLGPAT
B2: PAIP1 peptide 124-139 (Polyadenylate-binding protein-interacting protein 1), 16-mer library wild type / PABPC1 PABC (PABPC1 PABC domain, residues 544-623) (parent complex)
chain 1: LMSKLSVNAPEFYPSG
chain 2: PLTASMLASAPPQEQKQMLGERLFPLIQAMHPTLAGKITGMLLEIDNSELLHMLESPESLRSKVDEAVAVLQAHQAKEAA

Variants of: B1
Assay: proteomic peptide phage display deep mutational scan (ProP-PD DMS): M13 P8 16-mer library selected against immobilised GST-tagged bait for four days (rounds), NGS of the eluted pools per day and pseudo-replica; bait immobilised on MaxiSorp plates (10 µg), library pre-cleared on GST, 2 h binding at 4 °C, five washes; one round per day, days 1-4; value from days 2 and 3

Variant | screen value
chain 1 T14I | 0.00075 average fractional NGS count over selection days 2 and 3 (reads of this peptide / all reads for the bait, averaged over …
chain 1 T14H | 0.00166 average fractional NGS count over selection days 2 and 3 (reads of this peptide / all reads for the bait, averaged over …
chain 1 T14A | 0.00163 average fractional NGS count over selection days 2 and 3 (reads of this peptide / all reads for the bait, averaged over …
chain 1 F8W | 0.00184 average fractional NGS count over selection days 2 and 3 (reads of this peptide / all reads for the bait, averaged over …
chain 1 A6Y | 0.00438 average fractional NGS count over selection days 2 and 3 (reads of this peptide / all reads for the bait, averaged over …
chain 1 A6V | 0.00173 average fractional NGS count over selection days 2 and 3 (reads of this peptide / all reads for the bait, averaged over …
chain 1 E2H | 0.00822 average fractional NGS count over selection days 2 and 3 (reads of this peptide / all reads for the bait, averaged over …
chain 1 E2M | 0.00435 average fractional NGS count over selection days 2 and 3 (reads of this peptide / all reads for the bait, averaged over …
chain 1 A1R | 0.000918 average fractional NGS count over selection days 2 and 3 (reads of this peptide / all reads for the bait, averaged over …
chain 1 S15Y | 0.000382 average fractional NGS count over selection days 2 and 3 (reads of this peptide / all reads for the bait, averaged over …
chain 1 S15V | 0.000997 average fractional NGS count over selection days 2 and 3 (reads of this peptide / all reads for the bait, averaged over …
chain 1 I9F | 0.00108 average fractional NGS count over selection days 2 and 3 (reads of this peptide / all reads for the bait, averaged over …
chain 1 I9W | 0.00339 average fractional NGS count over selection days 2 and 3 (reads of this peptide / all reads for the bait, averaged over …
chain 1 I9R | 0.00363 average fractional NGS count over selection days 2 and 3 (reads of this peptide / all reads for the bait, averaged over …
chain 1 I9G | 0.000546 average fractional NGS count over selection days 2 and 3 (reads of this peptide / all reads for the bait, averaged over …
chain 1 G13A | 0.00173 average fractional NGS count over selection days 2 and 3 (reads of this peptide / all reads for the bait, averaged over …
chain 1 G13T | 0.000744 average fractional NGS count over selection days 2 and 3 (reads of this peptide / all reads for the bait, averaged over …
chain 1 G13S | 0.00151 average fractional NGS count over selection days 2 and 3 (reads of this peptide / all reads for the bait, averaged over …
chain 1 G13P | 0.00036 average fractional NGS count over selection days 2 and 3 (reads of this peptide / all reads for the bait, averaged over …
chain 1 Q12P | 0.00104 average fractional NGS count over selection days 2 and 3 (reads of this peptide / all reads for the bait, averaged over …
chain 1 Q12D | 0.00045 average fractional NGS count over selection days 2 and 3 (reads of this peptide / all reads for the bait, averaged over …
chain 1 Q12I | 0.00133 average fractional NGS count over selection days 2 and 3 (reads of this peptide / all reads for the bait, averaged over …
chain 1 Q12S | 0.00474 average fractional NGS count over selection days 2 and 3 (reads of this peptide / all reads for the bait, averaged over …
chain 1 Q12M | 0.000477 average fractional NGS count over selection days 2 and 3 (reads of this peptide / all reads for the bait, averaged over …

Variant | screen value
chain 1 Q3D | 0.000539 average fractional NGS count over selection days 2 and 3 (reads of this peptide / all reads for the bait, averaged over …
chain 1 Q3L | 0.00235 average fractional NGS count over selection days 2 and 3 (reads of this peptide / all reads for the bait, averaged over …
chain 1 Q3G | 0.000648 average fractional NGS count over selection days 2 and 3 (reads of this peptide / all reads for the bait, averaged over …
chain 1 Q10D | 0.000871 average fractional NGS count over selection days 2 and 3 (reads of this peptide / all reads for the bait, averaged over …
chain 1 Q10E | 0.0048 average fractional NGS count over selection days 2 and 3 (reads of this peptide / all reads for the bait, averaged over …
chain 1 Q10W | 0.0034 average fractional NGS count over selection days 2 and 3 (reads of this peptide / all reads for the bait, averaged over …
chain 1 Q10F | 0.00183 average fractional NGS count over selection days 2 and 3 (reads of this peptide / all reads for the bait, averaged over …
chain 1 Q10H | 0.00189 average fractional NGS count over selection days 2 and 3 (reads of this peptide / all reads for the bait, averaged over …
chain 1 Q10I | 0.00252 average fractional NGS count over selection days 2 and 3 (reads of this peptide / all reads for the bait, averaged over …
chain 1 Q10Y | 0.00306 average fractional NGS count over selection days 2 and 3 (reads of this peptide / all reads for the bait, averaged over …
chain 1 A5N | 0.00753 average fractional NGS count over selection days 2 and 3 (reads of this peptide / all reads for the bait, averaged over …
chain 1 A5L | 0.00177 average fractional NGS count over selection days 2 and 3 (reads of this peptide / all reads for the bait, averaged over …
chain 1 A5H | 0.0461 average fractional NGS count over selection days 2 and 3 (reads of this peptide / all reads for the bait, averaged over …
chain 1 A5W | 0.000742 average fractional NGS count over selection days 2 and 3 (reads of this peptide / all reads for the bait, averaged over …
chain 1 A5E | 0.0005 average fractional NGS count over selection days 2 and 3 (reads of this peptide / all reads for the bait, averaged over …
chain 1 E7Y | 0.00419 average fractional NGS count over selection days 2 and 3 (reads of this peptide / all reads for the bait, averaged over …
chain 1 E7G | 0.00104 average fractional NGS count over selection days 2 and 3 (reads of this peptide / all reads for the bait, averaged over …
chain 1 E7A | 0.00276 average fractional NGS count over selection days 2 and 3 (reads of this peptide / all reads for the bait, averaged over …
chain 1 E7W | 0.00666 average fractional NGS count over selection days 2 and 3 (reads of this peptide / all reads for the bait, averaged over …
chain 1 Q11V | 0.0012 average fractional NGS count over selection days 2 and 3 (reads of this peptide / all reads for the bait, averaged over …
chain 1 Q11S | 0.000902 average fractional NGS count over selection days 2 and 3 (reads of this peptide / all reads for the bait, averaged over …
chain 1 Q11W | 0.000954 average fractional NGS count over selection days 2 and 3 (reads of this peptide / all reads for the bait, averaged over …
chain 1 Q11G | 0.00455 average fractional NGS count over selection days 2 and 3 (reads of this peptide / all reads for the bait, averaged over …

Variants of: B2
Assay: as above

Variant | screen value
chain 1 M2P | 0.000581 average fractional NGS count over selection days 2 and 3 (reads of this peptide / all reads for the bait, averaged over …
chain 1 M2A | 0.000739 average fractional NGS count over selection days 2 and 3 (reads of this peptide / all reads for the bait, averaged over …
chain 1 M2G | 0.00279 average fractional NGS count over selection days 2 and 3 (reads of this peptide / all reads for the bait, averaged over …
chain 1 M2W | 0.000144 average fractional NGS count over selection days 2 and 3 (reads of this peptide / all reads for the bait, averaged over …
chain 1 M2L | 0.000374 average fractional NGS count over selection days 2 and 3 (reads of this peptide / all reads for the bait, averaged over …
chain 1 M2V | 0.000531 average fractional NGS count over selection days 2 and 3 (reads of this peptide / all reads for the bait, averaged over …
chain 1 M2E | 0.00221 average fractional NGS count over selection days 2 and 3 (reads of this peptide / all reads for the bait, averaged over …
chain 1 G16I | 0.00186 average fractional NGS count over selection days 2 and 3 (reads of this peptide / all reads for the bait, averaged over …
chain 1 G16M | 0.00176 average fractional NGS count over selection days 2 and 3 (reads of this peptide / all reads for the bait, averaged over …
chain 1 G16R | 0.000806 average fractional NGS count over selection days 2 and 3 (reads of this peptide / all reads for the bait, averaged over …
chain 1 G16T | 0.000984 average fractional NGS count over selection days 2 and 3 (reads of this peptide / all reads for the bait, averaged over …
chain 1 G16Q | 0.00204 average fractional NGS count over selection days 2 and 3 (reads of this peptide / all reads for the bait, averaged over …
chain 1 G16E | 0.000703 average fractional NGS count over selection days 2 and 3 (reads of this peptide / all reads for the bait, averaged over …
chain 1 G16H | 0.00575 average fractional NGS count over selection days 2 and 3 (reads of this peptide / all reads for the bait, averaged over …
chain 1 G16F | 0.00158 average fractional NGS count over selection days 2 and 3 (reads of this peptide / all reads for the bait, averaged over …
chain 1 G16S | 0.0008 average fractional NGS count over selection days 2 and 3 (reads of this peptide / all reads for the bait, averaged over …
chain 1 G16W | 0.000405 average fractional NGS count over selection days 2 and 3 (reads of this peptide / all reads for the bait, averaged over …
chain 1 V7H | 0.00381 average fractional NGS count over selection days 2 and 3 (reads of this peptide / all reads for the bait, averaged over …
chain 1 V7Y | 0.000349 average fractional NGS count over selection days 2 and 3 (reads of this peptide / all reads for the bait, averaged over …
chain 1 V7S | 0.00035 average fractional NGS count over selection days 2 and 3 (reads of this peptide / all reads for the bait, averaged over …
chain 1 V7P | 0.00145 average fractional NGS count over selection days 2 and 3 (reads of this peptide / all reads for the bait, averaged over …
chain 1 P10S | 0.00454 average fractional NGS count over selection days 2 and 3 (reads of this peptide / all reads for the bait, averaged over …
chain 1 P10E | 0.00302 average fractional NGS count over selection days 2 and 3 (reads of this peptide / all reads for the bait, averaged over …
chain 1 P10A | 0.0041 average fractional NGS count over selection days 2 and 3 (reads of this peptide / all reads for the bait, averaged over …
chain 1 P10M | 0.000583 average fractional NGS count over selection days 2 and 3 (reads of this peptide / all reads for the bait, averaged over …
chain 1 P10Y | 0.000572 average fractional NGS count over selection days 2 and 3 (reads of this peptide / all reads for the bait, averaged over …
chain 1 P10H | 0.000334 average fractional NGS count over selection days 2 and 3 (reads of this peptide / all reads for the bait, averaged over …
chain 1 P10R | 0.000887 average fractional NGS count over selection days 2 and 3 (reads of this peptide / all reads for the bait, averaged over …
